Results reported in PMC2794155.
Like-named read-outs stand apart in the source and are kept apart here.

Experiments:
NHP6A [1] = target: T1, NHP6A (Saccharomyces cerevisiae RKY3032, UniProt P11632 1-93); experiment: EMSA
MSH2;MSH6 F337A = MSH2;MSH6 F337A (Saccharomyces cerevisiae;Saccharomyces …, UniProt P25847;Q03834 1-964;1-1242, |F337A); experiment: EMSA
MSH2;MSH6 [2] = target: T2, MSH2;MSH6 (Saccharomyces cerevisiae;Saccharomyces …, UniProt P25847;Q03834 1-964;1-1242, |); experiment: EMSA
NHP6A [3] = target: T1, NHP6A; experiment: EMSA; remark: listed apart in the source
NHP6A;MSH2;MSH6 = NHP6A;MSH2;MSH6 (Saccharomyces cerevisiae …, UniProt P11632;P25847;Q03834 1-93;1-964;1-1242, ||); experiment: EMSA supershift
Sequence of NHP6A;MSH2;MSH6 (P11632 whole entry, chain 1 of 3): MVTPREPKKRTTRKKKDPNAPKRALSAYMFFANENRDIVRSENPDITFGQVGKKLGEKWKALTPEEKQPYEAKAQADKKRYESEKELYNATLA
Sequence of NHP6A;MSH2;MSH6 (P25847 whole entry, chain 2 of 3): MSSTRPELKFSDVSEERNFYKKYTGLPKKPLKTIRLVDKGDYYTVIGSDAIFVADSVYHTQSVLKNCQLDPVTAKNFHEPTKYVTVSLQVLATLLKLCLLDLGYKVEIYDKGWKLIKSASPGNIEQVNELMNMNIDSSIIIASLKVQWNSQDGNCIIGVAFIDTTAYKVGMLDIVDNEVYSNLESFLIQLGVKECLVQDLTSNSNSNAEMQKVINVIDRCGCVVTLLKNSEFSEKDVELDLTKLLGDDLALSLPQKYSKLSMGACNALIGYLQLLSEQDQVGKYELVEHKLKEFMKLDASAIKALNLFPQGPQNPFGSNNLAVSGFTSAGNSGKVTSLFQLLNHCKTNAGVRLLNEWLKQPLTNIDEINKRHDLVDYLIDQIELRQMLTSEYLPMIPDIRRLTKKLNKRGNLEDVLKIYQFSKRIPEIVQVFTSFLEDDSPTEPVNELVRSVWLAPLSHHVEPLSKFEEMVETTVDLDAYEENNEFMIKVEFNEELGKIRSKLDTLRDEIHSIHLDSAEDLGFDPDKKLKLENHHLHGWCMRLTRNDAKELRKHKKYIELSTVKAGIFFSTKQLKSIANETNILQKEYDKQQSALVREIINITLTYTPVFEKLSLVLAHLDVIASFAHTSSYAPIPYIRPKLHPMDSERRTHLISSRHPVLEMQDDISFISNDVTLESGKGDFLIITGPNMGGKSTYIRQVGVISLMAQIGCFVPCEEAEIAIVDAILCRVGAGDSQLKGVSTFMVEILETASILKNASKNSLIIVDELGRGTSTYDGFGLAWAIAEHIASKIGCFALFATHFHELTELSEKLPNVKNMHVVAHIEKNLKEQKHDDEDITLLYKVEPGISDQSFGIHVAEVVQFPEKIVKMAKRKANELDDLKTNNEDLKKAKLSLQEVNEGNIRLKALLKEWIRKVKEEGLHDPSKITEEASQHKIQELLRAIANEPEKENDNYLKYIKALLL
Sequence of NHP6A;MSH2;MSH6 (Q03834 whole entry, chain 3 of 3): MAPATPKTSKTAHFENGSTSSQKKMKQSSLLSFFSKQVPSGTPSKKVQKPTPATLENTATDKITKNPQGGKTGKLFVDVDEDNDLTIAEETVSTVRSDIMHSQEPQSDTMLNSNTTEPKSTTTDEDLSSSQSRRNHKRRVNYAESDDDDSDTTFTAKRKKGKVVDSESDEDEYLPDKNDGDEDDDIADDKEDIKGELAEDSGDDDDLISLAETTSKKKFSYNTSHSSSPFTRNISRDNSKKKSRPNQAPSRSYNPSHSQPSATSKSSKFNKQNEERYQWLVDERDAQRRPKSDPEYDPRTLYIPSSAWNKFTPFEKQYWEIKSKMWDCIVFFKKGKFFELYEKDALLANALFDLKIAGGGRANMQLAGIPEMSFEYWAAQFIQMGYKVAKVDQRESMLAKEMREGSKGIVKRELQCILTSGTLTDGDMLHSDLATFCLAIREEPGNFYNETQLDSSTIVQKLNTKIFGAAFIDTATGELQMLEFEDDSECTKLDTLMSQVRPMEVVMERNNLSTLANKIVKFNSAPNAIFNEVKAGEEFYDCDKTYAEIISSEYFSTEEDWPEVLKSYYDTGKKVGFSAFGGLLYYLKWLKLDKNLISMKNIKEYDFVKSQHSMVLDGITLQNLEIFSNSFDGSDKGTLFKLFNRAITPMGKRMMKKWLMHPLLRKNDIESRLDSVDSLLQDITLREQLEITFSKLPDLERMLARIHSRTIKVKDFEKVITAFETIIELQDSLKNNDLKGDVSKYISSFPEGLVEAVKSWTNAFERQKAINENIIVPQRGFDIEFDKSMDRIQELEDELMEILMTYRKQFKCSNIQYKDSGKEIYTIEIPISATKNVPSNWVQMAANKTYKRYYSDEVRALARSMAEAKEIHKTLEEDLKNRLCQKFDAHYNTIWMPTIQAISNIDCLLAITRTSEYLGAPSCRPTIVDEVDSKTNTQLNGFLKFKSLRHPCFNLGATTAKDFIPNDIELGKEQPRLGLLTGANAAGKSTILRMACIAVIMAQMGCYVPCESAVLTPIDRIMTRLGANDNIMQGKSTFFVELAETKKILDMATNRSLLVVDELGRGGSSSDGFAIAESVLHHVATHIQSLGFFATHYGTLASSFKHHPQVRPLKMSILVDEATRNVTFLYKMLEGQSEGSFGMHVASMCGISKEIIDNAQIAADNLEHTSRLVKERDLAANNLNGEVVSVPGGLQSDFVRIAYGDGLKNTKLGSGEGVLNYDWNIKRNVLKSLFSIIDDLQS

MSH2;MSH6 [4] = target: T2, MSH2;MSH6; experiment: EMSA; remark: listed apart in the source

T1 sequence (P11632 whole entry): as the sequence (P11632 whole entry, chain 1 of 3) above
T2 sequence (P25847 whole entry, chain 1 of 2): as the sequence (P25847 whole entry, chain 2 of 3) above
T2 sequence (Q03834 whole entry, chain 2 of 2): as the sequence (Q03834 whole entry, chain 3 of 3) above
Sequence of MSH2;MSH6 F337A (P25847 whole entry, chain 1 of 2): as the sequence (P25847 whole entry, chain 2 of 3) above
Sequence of MSH2;MSH6 F337A (Q03834 whole entry F337A, chain 2 of 2): as the sequence (Q03834 whole entry, chain 3 of 3) above, with F337A counted along it

Binder | binding result (NHP6A [1]) | binding result (NHP6A [3]) | other results
37-mer G:C homoduplex (A/T in figures) (dsDNA) DNA 1: ATTTCCTTCAGCAGATAGGAACCATACTGATTCACAT DNA 2: ATGTGAATCAGTATGGTTCCTATCTGCTGAAGGAAAT | binds | – | –
37-mer G:T heteroduplex (dsDNA) DNA 1: ATTTCCTTCAGCAGATAGGAACCATACTGATTCACAT DNA 2: ATGTGAATCAGTATGGTTTCTATCTGCTGAAGGAAAT | binds | – | –
50-mer T:A homoduplex (dsDNA) DNA 1: CTCATTCAGCATAACTTGATTTCTTTCAGCAGATAGAAACCATACTGATT DNA 2: AATCAGTATGGTTTCTATCTGCTGAAAGAAATCAAGTTATGCTGAATGAG | – | binds | binding result (MSH2;MSH6 F337A): no binding; binding result (MSH2;MSH6 [2]): binds
50-mer T:G heteroduplex (dsDNA) DNA 1: CTCATTCAGCATAACTTGATTTCTTTCAGCAGATAGAAACCATACTGATT DNA 2: AATCAGTATGGTTTCTATCTGCTGAAGGAAATCAAGTTATGCTGAATGAG | – | binds | binding result (NHP6A;MSH2;MSH6): binds; binding result (MSH2;MSH6 [4]): binds
